{"source": "patent US7393670B2", "about": "“Tyrosyl-tRNA synthetase variants” (Japan Science and Technology Agency, priority 2001, dated 2008)", "format_in_all_cases": "biochemical", "key": {"[1]": {"tested_on": "wheat germ cell-free translation system", "assay": "Amber suppression in wheat germ cell-free protein synthesis system (c-H-Ras, 32nd codon amber)", "text": "Production of the protein containing iodotyrosine was attempted by the reaction by a batch method in a wheat germ cell-free protein synthesis system using the resultant VC and an amber suppressor tRNA derived from tyrosine tRNA of E. coli. A short chain type of c-H-Ras added His-tag at the C-terminus via a spacer sequence (Milburn et al., Science 247:939-45, 1990) was used as the target protein. In translation where the template was mRNA made from a construction where the 32nd codon of this protein was replaced by the amber codon, the production of the protein in full length was dependent on coexistence of both TyrRS and the suppressor tRNA (FIG. 2). This proves that the suppressor tRNA used is scarcely aminoacylated by the endogenous aminoacyl-tRNA synthetase in the wheat germs. A synthetic quantity by the amber suppression was 30 to 40% of that of a control with no amber codon. In order to increase the synthetic quantity of the protein, the reaction by the suppression was carried out for 3 days using a dialysis method. […]\nThe translation reaction was carried out by further adding iodotyrosine at a final concentration of 0.6 mM in addition to the condition of the kit. […] Using an image analyzer FLA-2000 (Fujifilm, Tokyo, Japan), counts of RI of bands on the gel were quantified, or protein bands stained using Cypro-tangerine protein gel stain (Molecular probes) on the gel were quantified."}, "[2]": {"tested_on": "tyrosine or 3-iodotyrosine for the full-length tRNA", "assay": "Aminoacylation of full-length tRNA by acidic polyacrylamide gel electrophoresis (Wolfson)", "settings": "acidic PAGE; 200 μM amino acid, enzyme 50 nM, 37° C. for 3 min", "experimental": "In the third method, levels of aminoacylation activity in the presence of tyrosine or 3-iodotyrosine for the full-length tRNA were assayed by the same method as. acidic polyacrylamide gel electrophoresis described by Wolfson et al. (Wolfson, A. D. et al., RNA, 4:1019-1023, 1998). The result is shown in FIG. 1 as a photo, substitute for a drawing.\nIn the third method, the aminoacylation activity for tyrosine or 3-iodotyrosine for tRNA in full length was assayed by the same method as acidic polyacrylamide electrophoresis by the method of Wolfson et al. (Wolfson, A. D. et al., RNA, 4:1019-1023, 1998). Tyrosine or iodotyrosine at 200 μM and the enzyme at 50 nM were incubated at 37° C. for 3 min, and subsequently the electrophoresis was carried out. The result of the aminoacylation activity of the enzymes with double mutations are shown on the photo, substitute for a drawing, in FIG. 1. In FIG. 1, left three lanes are from the wild-type enzyme, middle three lanes are from the enzyme modified at position 37 with valine (37V) and right three lanes are from the enzyme modified at positions 37 and 195 with valine and cysteine (VC), respectively. Three lanes in each group show the case without the addition of the amino acid (w/o aa), the case with the addition of 3-iodotyrosine (200 μM) (1-Tyr), and the case with the addition of tyrosine (200 μM) (Tyr), respectively from the left."}, "[3]": {"tested_on": "wheat germ cell-free translation system", "assay": "LC-MS analysis of K3 fragment of Ras translation products", "settings": "absorbance of chromatogram", "experimental": "It was examined by mass spectrometry that iodotyrosine was actually inserted at the position corresponding to the amber codon of the peptide chain. Ras protein purified using nickel beads was applied on SDS-PAGE. A band corresponding to a mobility of Ras among stained product bands was cut out and treated with peptidase. A resultant fragment was analyzed by LC-MS (liquid chromatography—mass spectrometry). The 32nd codon of Ras protein used as a reporter protein is the codon for tyrosine. […] Among the fragments obtained by digesting the translation products, the fragment including the 32nd amino acid from N-terminus (Ser 17 to Lys 42, referred to as K3 fragment) was focused and analyzed. […] No K3 fragment was detected where the other amino acid was accidentally inserted at the site corresponding to the amber codon. The ratio of iodotyrosine to tyrosine inserted to the amber codon was examined by absorbance of chromatogram. […] On the other hand, no fragment having the mass corresponding to the case encompassing iodotyrosine in place of tyrosine was detected in the analysis of the translation products from mRNA which contained no amber codon. […]\nIt was examined by mass spectrometric analysis that iodotyrosine was actually inserted at the position corresponding to the amber codon of the peptide chain. […] Elutes were analyzed by Finnigan LCQ ion trap mass spectrometer using ESI probe. […]"}}}
{"molecule": "VC: E. coli TyrRS double variant: position 37 Valine, position 195 Cysteine (protein, UniProt P0AGJ9 2-424, looked up, variant Y37V Q195C) Tyrosine--tRNA ligase: ASSNLIKQLQERGLVAQVTDEEALAERLAQGPIALVCGFDPTADSLHLGHLVPLLCLKRFQQAGHKPVALVGGATGLIGDPSFKAAERKLNTEETVQEWVDKIRKQVAPFLDFDCGENSAIAANNYDWFGNMNVLTFLRDIGKHFSVNQMINKEAVKQRLNREDQGISFTEFSYNLLQGYDFACLNKQYGVVLCIGGSDQWGNITSGIDLTRRLHQNQVFGLTVPLITKADGTKFGKTEGGAVWLDPKKTSPYKFYQFWINTADADVYRFLKFFTFMSIEEINALEEEDKNSGKAPRAQYVLAEQVTRLVHGEEGLQAAKRITECLFSGSLSALSEADFEQLAQDGVPMVEMEKGADLMQALVDSELQPSRGQARKTIASNAITINGEKQSDPEYFFKEEDRLFGRFTLLRRGKKNYCLICWK", "values": [{"measurement": "amber suppression (full-length translation product, SDS-PAGE)", "setting": "[1]; FIG. 2, 14C-leucine labeled products", "result": "amber suppression was observed only when both TyrRS-VC variant and suppressor tRNA were present"}, {"measurement": "quantity of the production of protein", "setting": "[1]; dialysis method, 3 days", "result": "≥ 0.1 mg per ml of reaction solution"}, {"measurement": "specificity for the tyrosine analogue (attachment of amino acid to tRNA)", "setting": "[2]", "result": "high specificity for the tyrosine analogue"}, {"measurement": "K3 fragments encompassing iodotyrosine by the amber suppression", "setting": "[3]", "result": "≥ 95", "unit": "%"}, {"measurement": "ratio of tyrosine insertion at the amber codon", "setting": "[3]", "result": "≤ 5", "unit": "%"}]}
